The record followed here is paper PMC12103069 (2025).

This experiment addresses UBE2L3 wild type (Mus musculus). Kind of experiment: MST.

What is called Kd is the concentration at which binding is half-saturated. A low value points to higher affinity.

Sequence of UBE2L3 wild type (Mus musculus) (B2R4A7 whole entry): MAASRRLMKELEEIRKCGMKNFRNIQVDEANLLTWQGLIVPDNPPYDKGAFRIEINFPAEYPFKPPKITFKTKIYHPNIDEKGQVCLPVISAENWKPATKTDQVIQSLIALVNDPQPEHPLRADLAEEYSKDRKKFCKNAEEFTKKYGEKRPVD

B1: GST-MuRF1RM (MuRF1 amino acids 1-115, RING and MFC domains) (domain or fragment)
chain: MDYKSGLIPDGNAMENLEKQLICPICLEMFTKPVVILPCQHNLCRKCANDIFQAANPYWTNRGGSVSMSGGRFRCPSCRHEVIMDRHGVYGLQRNLLVENIIDIYKQECSSRPLQ
modifications: red fluorescent dye NT-647, covalently, by amine coupling (in the fluorescence assay only)
B1 had a Kd of 150 nM.
